From publication PMC10176505, “PYK-SubstitutionOME: an integrated database containing allosteric coupling, ligand affinity and mutational, structural, pathological, bioinformatic and computational information about pyruvate kinase isozymes” (Database: The Journal of Biological Databases and Curation, 2023)

Tested on: T1, C=C(OP(=O)(O)O)C(=O)O
T1 construct: full-length liver isozyme; homotetramer; purified or partially purified
Experiment: enzyme kinetics, PEP concentration at half Vmax
Format: biochemical, Homo sapiens
Details: no allosteric effector; apparent affinity (not an association constant)
From the text: enzyme kinetics, PEP concentration at half Vmax on hLPYK | Ka-PEP (the kinetic equivalent to Kia-PEP), the apparent affinity for PEP

hLPYK (Homo sapiens), sequence (chain, as listed by the source): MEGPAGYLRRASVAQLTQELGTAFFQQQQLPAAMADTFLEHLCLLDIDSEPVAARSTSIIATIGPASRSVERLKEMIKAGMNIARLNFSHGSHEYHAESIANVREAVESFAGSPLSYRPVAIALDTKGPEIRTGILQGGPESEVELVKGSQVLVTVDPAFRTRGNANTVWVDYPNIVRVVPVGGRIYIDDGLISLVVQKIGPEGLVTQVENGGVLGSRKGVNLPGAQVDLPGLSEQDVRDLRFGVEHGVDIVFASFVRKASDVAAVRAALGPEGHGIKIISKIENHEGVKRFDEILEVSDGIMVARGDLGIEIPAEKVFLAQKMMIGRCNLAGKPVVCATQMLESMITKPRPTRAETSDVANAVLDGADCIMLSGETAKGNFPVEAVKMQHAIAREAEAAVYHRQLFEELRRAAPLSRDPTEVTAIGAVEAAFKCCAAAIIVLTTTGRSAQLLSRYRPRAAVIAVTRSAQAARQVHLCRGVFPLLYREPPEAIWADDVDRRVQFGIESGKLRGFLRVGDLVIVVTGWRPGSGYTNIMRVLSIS

Work on hLPYK (Homo sapiens) yielded a K0.5 of 0.22 mM.
